According to patent US20150266956A1 (UNIVERSITY OF ROCHESTER, published 2015):

Target: T1, murine DC-STAMP (dendritic cell-specific transmembrane protein) (mouse, UniProt Q7TNJ0 1-470)
T1 construct: whole, on cells; Endogenous protein; In the immunoprecipitation and immunoblot it came from cell lysates (about 50 kDa reduced, about 100 kDa non-reduced); also called mouse DC-STAMP
T1 sequence (looked up): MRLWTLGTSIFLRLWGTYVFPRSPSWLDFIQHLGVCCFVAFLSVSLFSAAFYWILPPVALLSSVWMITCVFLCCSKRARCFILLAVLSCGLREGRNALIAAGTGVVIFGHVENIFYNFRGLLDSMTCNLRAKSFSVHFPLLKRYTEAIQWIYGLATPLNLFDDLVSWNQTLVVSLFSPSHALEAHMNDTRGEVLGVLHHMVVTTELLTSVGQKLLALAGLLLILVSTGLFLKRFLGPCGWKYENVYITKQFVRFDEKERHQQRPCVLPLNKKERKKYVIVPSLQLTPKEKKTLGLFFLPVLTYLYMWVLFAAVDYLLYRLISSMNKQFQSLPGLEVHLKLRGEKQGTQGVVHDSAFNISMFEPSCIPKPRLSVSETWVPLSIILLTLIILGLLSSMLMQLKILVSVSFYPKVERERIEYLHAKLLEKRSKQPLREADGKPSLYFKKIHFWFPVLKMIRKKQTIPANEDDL
Experiment: immunoprecipitation and immunoblot of RANKL-treated CD11b+ RAW 264.7 cell lysate (FIG. 1A)
Protocol: After immunoprecipitation with the 1A2 mAb, immunoblotting was performed with either the 1A2 mAb, the KR104 rabbit polyclonal antibody (positive control), or an anti-mouse IgG antibody (negative control) under non-reducing (nr: −β-mercaptoethanol) or reducing (r: +β-mercaptoethanol) conditions. M: protein marker, black and white scanned overlay. Blot is representative of 4 separate trials. […] Numbers below bands represent densitometry values used as a semiquantitative measure of relative protein level. Blot is representative of 2 separate trials.
To study surface protein expression, a mAb was generated against a peptide in the fourth extracellular domain of DC-STAMP. For comparison, a polyclonal DC-STAMP antibody was used that has histologically shown surface expression on OC (Kukita et al., J. Exp. Med. 200:941-6 (2004)). CD11b+ cells were cultured for 2 days with RANKL and extracted membrane fraction proteins for immunoprecipitation with the 1A2 mAb. […] Both antibodies also recognize a protein at double the molecular weight (˜100 kDa) under non-reducing (nr) conditions. In both reducing and non-reducing conditions, the 1A2 DC-STAMP mAb has a more intense band for the same amount of protein loaded in each lane. […] The 1A2 mAb clone was conjugated to FITC and used to determine if surface membrane DC-STAMP on CD11b+ cells could be detected by flow cytometry.

B1: DC-STAMP monoclonal antibody 1A2 (antibody, V domains shown)
VH: QVTLKESGPGILQPSQTLSLTCSFSGFSLSTFGMGVGWIRQPSGKGLEWLAHIWWDDDKYYSPALKSRLTISKDTSKNQVFLKIANVDTADTATYYCVRIGSRSPFAYWGPGTLVTVSS
VL: DIVMTQAAFSNPVTLGTSASISCRSSKSLLHSNGITYLYWYLQKPGQSPQVLIYQMSNLASGVPDRFSSSGSGTDFTLRISRVEAEDVGVYYCAQNLELPWTFGGGTKLEIKR
notes: The antibody was FITC-conjugated for flow cytometry and immunofluorescence; also called 1A2 mAb; clone 1A2
B1: binds.
